Experimental findings from the supplement of paper PMC7125110 are described below.

B1: glmS ribozyme (parent)
chain: AUAAAAGCGCCAGAACUACAGAAAUGUAGUUGACGAGGAGGAGGUUUAUCGAAUUUUCGGCGGAUGCCUCCAAA

Common to all, as to details: with glucosamine-6-phosphate
The variants in series [1] derive from B1. Description: self-cleavage kobs at 40 uM GlcN6P; higher = faster cleavage; RNA array. In a few lines: (§1)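 Barcoded ribozyme variants were transcribed in situ on sequenced MiSeq chips by E. coli RNA polymerase. At 37 °C, a hybridised Cy3 probe tracked them while glucosamine-6-phosphate (40 μM to 10 mM) in HEPES/KCl/Mg(OAc)2 buffer flowed in and tiles were imaged over ~14 h. Per-tile medians of signals normalised to baseline and to non-cleaving reference variants were fit to one- or two-exponential decays, giving kobs. kcat and KM came from weighted Michaelis–Menten fits across concentrations.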

Variants of B1 are the subject of series [2]. Description: self-cleavage kobs at 640 uM GlcN6P; higher = faster cleavage; RNA array. In a few lines:
as §1

In series [3] the parent is B1. Description: self-cleavage kobs at 2500 uM GlcN6P; higher = faster cleavage; RNA array. The essentials: as §1
Variants of B1 are the subject of series [4]. Description: self-cleavage kobs at 160 uM GlcN6P; higher = faster cleavage; RNA array. The essentials: as §1
The variants in series [5] derive from B1. Description: self-cleavage kobs at 10000 uM GlcN6P; higher = faster cleavage; RNA array. The essentials:
as §1

In series [6] the parent is B1. Description: KM; higher = weaker cofactor use; RNA array. In a few lines:
as §1

In series [7] the parent is B1. Description: kcat; higher = faster cleavage; RNA array. In a few lines:
as §1

The KM is the substrate concentration at which the rate is half of its maximum. What is called kcat is the maximal rate divided by the concentration of active sites.

± gives the standard error. For part of these data: Fewer inactive variants are shown than the library holds. A value given as a limit tells only on which side of the number the result lay.

For the variant G59A G60U C61A, the “self-cleavage kobs at 40 uM GlcN6P” value in the series with glucosamine-6-phosphate [1] was < 1e-05 s⁻¹. In addition, the “self-cleavage kobs at 640 uM GlcN6P” value with glucosamine-6-phosphate [2] was < 1e-05 s⁻¹. In addition, the “self-cleavage kobs at 2500 uM GlcN6P” value with glucosamine-6-phosphate [3] is < 1e-05 s⁻¹.

For G44A C67U, the “self-cleavage kobs at 40 uM GlcN6P” value in the series with glucosamine-6-phosphate [1] was 0.000707 ± 7e-05 s⁻¹. The “self-cleavage kobs at 160 uM GlcN6P” value with glucosamine-6-phosphate [4] was found to be 0.00265 ± 0.00064 s⁻¹. Also, the “self-cleavage kobs at 640 uM GlcN6P” value with glucosamine-6-phosphate [2] came to 0.00449 ± 0.0011 s⁻¹. For the same variant, the “self-cleavage kobs at 2500 uM GlcN6P” value with glucosamine-6-phosphate [3] came to 0.006 ± 0.0018 s⁻¹. The “self-cleavage kobs at 10000 uM GlcN6P” value with glucosamine-6-phosphate [5] amounted to 0.0388 ± 0.0061 s⁻¹.

Take C11U A33G U69A: the “self-cleavage kobs at 40 uM GlcN6P” value with glucosamine-6-phosphate [1] was < 1e-05 s⁻¹. Also, the “self-cleavage kobs at 10000 uM GlcN6P” value with glucosamine-6-phosphate [5] is < 1e-05 s⁻¹.

As for G41U A52C, the KM in the series with glucosamine-6-phosphate [6] worked out at 3260 ± 480 µM.

In the case of C10G G59A, the kcat with glucosamine-6-phosphate [7] was < 1e-05 s⁻¹. For the same variant, in the series with glucosamine-6-phosphate [1], the “self-cleavage kobs at 40 uM GlcN6P” value was < 1e-05 s⁻¹. For the same variant, in the series with glucosamine-6-phosphate [4], the “self-cleavage kobs at 160 uM GlcN6P” value was < 1e-05 s⁻¹.

As for A39U U56A, the “self-cleavage kobs at 40 uM GlcN6P” value with glucosamine-6-phosphate [1] was 0.000199 ± 3.1e-05 s⁻¹. Moreover, in the series with glucosamine-6-phosphate [4], the “self-cleavage kobs at 160 uM GlcN6P” value stood at 0.000238 ± 8.2e-05 s⁻¹. The “self-cleavage kobs at 2500 uM GlcN6P” value with glucosamine-6-phosphate [3] stood at 0.00215 ± 0.00066 s⁻¹. Moreover, the “self-cleavage kobs at 10000 uM GlcN6P” value in the series with glucosamine-6-phosphate [5] came out at 0.00963 ± 0.00089 s⁻¹.

For the variant C10G A39G, the kcat in the series with glucosamine-6-phosphate [7] was < 1e-05 s⁻¹. In addition, the “self-cleavage kobs at 160 uM GlcN6P” value in the series with glucosamine-6-phosphate [4] is < 1e-05 s⁻¹.

On to A12U C67A, for which the “self-cleavage kobs at 40 uM GlcN6P” value with glucosamine-6-phosphate [1] is 0.000743 ± 7.6e-05 s⁻¹. Also, the “self-cleavage kobs at 160 uM GlcN6P” value with glucosamine-6-phosphate [4] was determined as 0.000983 ± 0.00027 s⁻¹. The “self-cleavage kobs at 640 uM GlcN6P” value with glucosamine-6-phosphate [2] worked out at 0.00261 ± 0.00048 s⁻¹. For the same variant, in the series with glucosamine-6-phosphate [3], the “self-cleavage kobs at 2500 uM GlcN6P” value was determined as 0.0101 ± 0.0038 s⁻¹.

G9U G43U: the “self-cleavage kobs at 40 uM GlcN6P” value in the series with glucosamine-6-phosphate [1] is < 1e-05 s⁻¹. Besides, in the series with glucosamine-6-phosphate [2], the “self-cleavage kobs at 640 uM GlcN6P” value was < 1e-05 s⁻¹. Also, in the series with glucosamine-6-phosphate [3], the “self-cleavage kobs at 2500 uM GlcN6P” value was < 1e-05 s⁻¹. Besides, the “self-cleavage kobs at 10000 uM GlcN6P” value with glucosamine-6-phosphate [5] was < 1e-05 s⁻¹.

For A53U G66U, in the series with glucosamine-6-phosphate [7], the kcat was 0.00118 ± 0.00016 s⁻¹. Besides, in the series with glucosamine-6-phosphate [6], the KM came out at 2320 ± 590 µM. In addition, in the series with glucosamine-6-phosphate [4], the “self-cleavage kobs at 160 uM GlcN6P” value is 6.64e-05 ± 1.7e-05 s⁻¹. For the same variant, the “self-cleavage kobs at 640 uM GlcN6P” value with glucosamine-6-phosphate [2] came to 0.000307 ± 7.4e-05 s⁻¹. The “self-cleavage kobs at 2500 uM GlcN6P” value in the series with glucosamine-6-phosphate [3] came out at 0.000716 ± 0.00012 s⁻¹. Besides, in the series with glucosamine-6-phosphate [5], the “self-cleavage kobs at 10000 uM GlcN6P” value turned out to be 0.000904 ± 0.00012 s⁻¹.

Turning to A15U G29A G43A, in the series with glucosamine-6-phosphate [1], the “self-cleavage kobs at 40 uM GlcN6P” value was < 1e-05 s⁻¹. Besides, the “self-cleavage kobs at 10000 uM GlcN6P” value in the series with glucosamine-6-phosphate [5] is < 1e-05 s⁻¹.

For G38C G44U C58U A64U, in the series with glucosamine-6-phosphate [1], the “self-cleavage kobs at 40 uM GlcN6P” value was < 1e-05 s⁻¹. Moreover, in the series with glucosamine-6-phosphate [5], the “self-cleavage kobs at 10000 uM GlcN6P” value is < 1e-05 s⁻¹.

On to A6U A48G G51C G59C, for which the “self-cleavage kobs at 40 uM GlcN6P” value in the series with glucosamine-6-phosphate [1] was < 1e-05 s⁻¹. In addition, in the series with glucosamine-6-phosphate [5], the “self-cleavage kobs at 10000 uM GlcN6P” value is < 1e-05 s⁻¹.

In the case of G13U G41U U46G, the “self-cleavage kobs at 40 uM GlcN6P” value in the series with glucosamine-6-phosphate [1] is < 1e-05 s⁻¹.

Take G7A A12U: the “self-cleavage kobs at 40 uM GlcN6P” value with glucosamine-6-phosphate [1] is < 1e-05 s⁻¹. Besides, the “self-cleavage kobs at 160 uM GlcN6P” value in the series with glucosamine-6-phosphate [4] is < 1e-05 s⁻¹. In the series with glucosamine-6-phosphate [3], the “self-cleavage kobs at 2500 uM GlcN6P” value amounted to 2.22e-05 ± 8.3e-06 s⁻¹. Also, in the series with glucosamine-6-phosphate [5], the “self-cleavage kobs at 10000 uM GlcN6P” value is 7.91e-05 ± 2e-05 s⁻¹.

On to G29A A64U, for which the KM with glucosamine-6-phosphate [6] is 593 ± 20 µM.

Consider C8A U46A, for which the “self-cleavage kobs at 40 uM GlcN6P” value with glucosamine-6-phosphate [1] was < 1e-05 s⁻¹. In addition, the “self-cleavage kobs at 160 uM GlcN6P” value with glucosamine-6-phosphate [4] was < 1e-05 s⁻¹. Moreover, the “self-cleavage kobs at 640 uM GlcN6P” value with glucosamine-6-phosphate [2] was < 1e-05 s⁻¹. In addition, in the series with glucosamine-6-phosphate [3], the “self-cleavage kobs at 2500 uM GlcN6P” value was < 1e-05 s⁻¹. Also, the “self-cleavage kobs at 10000 uM GlcN6P” value with glucosamine-6-phosphate [5] was < 1e-05 s⁻¹.

For G7U A33G U55A, in the series with glucosamine-6-phosphate [1], the “self-cleavage kobs at 40 uM GlcN6P” value is < 1e-05 s⁻¹. For the same variant, the “self-cleavage kobs at 10000 uM GlcN6P” value with glucosamine-6-phosphate [5] is < 1e-05 s⁻¹.

Regarding A36U C70A, the “self-cleavage kobs at 40 uM GlcN6P” value in the series with glucosamine-6-phosphate [1] stood at 3.96e-05 ± 1e-05 s⁻¹. Also, the “self-cleavage kobs at 160 uM GlcN6P” value in the series with glucosamine-6-phosphate [4] amounted to 4.33e-05 ± 1.3e-05 s⁻¹. The “self-cleavage kobs at 640 uM GlcN6P” value in the series with glucosamine-6-phosphate [2] came to 0.000143 ± 3.1e-05 s⁻¹. Further, the “self-cleavage kobs at 10000 uM GlcN6P” value with glucosamine-6-phosphate [5] worked out at 2.74e-05 ± 7.6e-06 s⁻¹.

G63A A64C: in the series with glucosamine-6-phosphate [1], the “self-cleavage kobs at 40 uM GlcN6P” value was < 1e-05 s⁻¹. The “self-cleavage kobs at 160 uM GlcN6P” value with glucosamine-6-phosphate [4] is < 1e-05 s⁻¹. For the same variant, the “self-cleavage kobs at 640 uM GlcN6P” value with glucosamine-6-phosphate [2] was < 1e-05 s⁻¹. For the same variant, the “self-cleavage kobs at 2500 uM GlcN6P” value with glucosamine-6-phosphate [3] was < 1e-05 s⁻¹.

In the case of G7U G29C G43U G51A, the “self-cleavage kobs at 40 uM GlcN6P” value with glucosamine-6-phosphate [1] was < 1e-05 s⁻¹. Further, in the series with glucosamine-6-phosphate [5], the “self-cleavage kobs at 10000 uM GlcN6P” value was < 1e-05 s⁻¹.

In the case of A12G C50U, in the series with glucosamine-6-phosphate [1], the “self-cleavage kobs at 40 uM GlcN6P” value was < 1e-05 s⁻¹. Also, the “self-cleavage kobs at 160 uM GlcN6P” value with glucosamine-6-phosphate [4] is < 1e-05 s⁻¹. Moreover, in the series with glucosamine-6-phosphate [5], the “self-cleavage kobs at 10000 uM GlcN6P” value is < 1e-05 s⁻¹.
